The target in data set [1] is α-glucosidase QsGH13 from Qipengyuania seohaensis sp. SW-135 (Qipengyuania seohaensis sp. SW-135). Description: crystal structure; QsGH13 at 10 mg/ml, hanging drop vapour diffusion at 4°C, 0.1 M Tris-HCl pH 8.5, 0.2 M NaCl, 20% PEG 3,350; space group P212121, two monomers per asymmetric unit.
Data set [2] concerns the target T1, QsGH13 (Qipengyuania seohaensis, UniProt A0A8X6EH34).
T1 construct: N-terminal His6-SUMO tag cut off with Ulp1; expressed in E. coli BL21(DE3) from pSMT3; dimer; primers encode N-terminus MSGKLP and C-terminus ILETDT (translated from primers)
The data set can be described thus: residual activity, p-nitrophenol release, absorbance […] nm. Format: biochemical. Conditions: product tolerance test, 2 M glucose, substrate pNPαGlu, 20 mM Gly-NaOH pH 10.0, 45 °C.

Substrate in data set [3]: O=[N+]([O-])c1ccc(O[C@H]2O[C@H](CO)[C@@H](O)[C@H](O)[C@H]2O)cc1
Description: purified protein. The settings on record: pH 10.0 (20 mM Gly-NaOH), 45 °C, 0.025-2.0 mM substrate.

As usually defined, the stoichiometry N is the number of molecules, sites or subunits per partner or assembly. For orientation: Km means the substrate concentration at which the rate is half of its maximum.

In the case of “α-glucosidase QsGH13 from Qipengyuania seohaensis sp. SW-135 (enzyme)”, the stoichiometry N in data set [1] came out at 2.

`OC[C@H]1OC(O)[C@H](O)[C@@H](O)[C@@H]1O` (stereo partly drawn) [glucose]: the “% activity retained at 2 M” value in data set [2] was 30%.

B1: QsGH13 (Qipengyuania seohaensis) (protein)
chain: MSGKLPWWKGAVIYQIYPRSFMDSNGDGIGDLPGIAQRLPHIAELGADAIWISPFFKSPMKDFGYDVSDYCDVDPIFGTLEDFDAVIARSHELGLKVLIDQVYSHTSDDHEWFAESRSNRDNPKAEWYVWADAKPDGSPPSNWQSVFGGPAWTWDARRGQYYLHNFLSSQPQLNLHNREAQQAVLDVMRFWLERGVDGFRIDALNFAMHDPQLRDNPPAPPTDKQRTRPFDFQLKTYNQSHADIPAFIERIRALTDEFDGIFTVAEVGGDDAVREMKAFTEGETHLNSAYGFNFLYAEALTPQLVCSALAEWPEEPDLGWPSWAFENHDAPRALSRWCTPEDRQAFARLKTLLLMSLRGNAILYYGEELGLTQVDIPFDQLHDPEAIANWPLTLSRDGARTPMPWDDSECAGFGSTAPWLPVGDDNRPRSVAAQLGDANSLLKFTRQAIALRKANPALHHGHVVECNHDGDLLELVREAGGQRLRCRFNLGSKPVECDDCEGRTLLAINGAEPTALPPFAAIILETDT
As for B1, the Km in data set [3] stood at 295.2 ± 32.2 µM.

The values are drawn from paper PMC8928221, “Structure and Function Insight of the α-Glucosidase QsGH13 From Qipengyuania seohaensis sp. SW-135” (Frontiers in Microbiology, 2022).
